According to PMC3852957:

Experiments:
[1] = target: human GLP-1 receptor (human) (UniProt P43220)
[2] = target: cynomolgus monkey serum albumin (cynomolgus monkey) (UniProt A2V9Z4); experiment: SPR; Biacore; 500 resonance units of albumin coupled to a CM5 chip; GAlbudAb flowed in HBS-P+ buffer at 39 nM to 5 μM; KD by the 1:1 interaction model in BiaEval software
[3] = target: human serum albumin (human) (UniProt P02768); experiment: as above
rat serum albumin (rat) = rat serum albumin (rat) (UniProt P02770); experiment: as above
Chain of UniProt P02770 (P02770 25-608): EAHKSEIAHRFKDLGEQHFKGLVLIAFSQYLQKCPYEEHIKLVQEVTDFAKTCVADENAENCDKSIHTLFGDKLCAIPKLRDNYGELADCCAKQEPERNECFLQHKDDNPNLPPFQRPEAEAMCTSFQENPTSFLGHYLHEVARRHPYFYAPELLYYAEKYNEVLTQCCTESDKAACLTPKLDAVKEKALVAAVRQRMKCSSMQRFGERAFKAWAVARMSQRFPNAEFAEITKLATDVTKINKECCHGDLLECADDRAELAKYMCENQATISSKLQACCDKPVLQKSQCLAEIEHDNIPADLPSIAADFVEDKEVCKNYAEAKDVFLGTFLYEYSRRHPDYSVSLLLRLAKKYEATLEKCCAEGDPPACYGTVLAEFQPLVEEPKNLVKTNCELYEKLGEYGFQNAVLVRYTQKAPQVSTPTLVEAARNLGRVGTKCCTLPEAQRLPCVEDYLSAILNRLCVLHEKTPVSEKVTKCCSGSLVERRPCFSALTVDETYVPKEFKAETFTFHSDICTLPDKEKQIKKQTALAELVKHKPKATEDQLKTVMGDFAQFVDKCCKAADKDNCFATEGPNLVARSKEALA

Chain of UniProt P43220 (P43220 24-463): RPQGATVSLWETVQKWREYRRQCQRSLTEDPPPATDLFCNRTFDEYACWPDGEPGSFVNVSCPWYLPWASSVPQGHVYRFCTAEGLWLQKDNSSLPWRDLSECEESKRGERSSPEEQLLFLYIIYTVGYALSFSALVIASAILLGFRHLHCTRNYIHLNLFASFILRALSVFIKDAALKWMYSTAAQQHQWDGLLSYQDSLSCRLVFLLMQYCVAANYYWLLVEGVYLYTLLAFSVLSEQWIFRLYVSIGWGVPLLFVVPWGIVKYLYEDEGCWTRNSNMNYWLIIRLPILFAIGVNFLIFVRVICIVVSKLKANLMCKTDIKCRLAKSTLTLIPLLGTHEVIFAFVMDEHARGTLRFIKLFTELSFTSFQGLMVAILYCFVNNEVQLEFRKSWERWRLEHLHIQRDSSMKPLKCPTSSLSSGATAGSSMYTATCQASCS
Chain of UniProt P02768 (P02768 25-609): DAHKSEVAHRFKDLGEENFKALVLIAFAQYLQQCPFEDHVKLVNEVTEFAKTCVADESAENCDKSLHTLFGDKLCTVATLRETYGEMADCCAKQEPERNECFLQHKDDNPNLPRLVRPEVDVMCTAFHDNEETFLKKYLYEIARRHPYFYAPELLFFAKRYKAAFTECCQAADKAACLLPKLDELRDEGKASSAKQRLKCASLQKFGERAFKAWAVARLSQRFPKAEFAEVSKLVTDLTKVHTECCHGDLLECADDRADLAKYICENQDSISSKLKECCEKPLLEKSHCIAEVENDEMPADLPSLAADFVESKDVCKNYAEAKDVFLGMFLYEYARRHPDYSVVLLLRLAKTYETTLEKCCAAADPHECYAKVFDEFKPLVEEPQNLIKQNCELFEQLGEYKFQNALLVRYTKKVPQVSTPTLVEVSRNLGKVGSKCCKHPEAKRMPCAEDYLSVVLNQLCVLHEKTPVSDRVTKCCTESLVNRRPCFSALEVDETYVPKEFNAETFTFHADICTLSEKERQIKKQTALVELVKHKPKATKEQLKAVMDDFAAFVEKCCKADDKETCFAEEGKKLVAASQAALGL
Chain of UniProt A2V9Z4 (A2V9Z4 25-608): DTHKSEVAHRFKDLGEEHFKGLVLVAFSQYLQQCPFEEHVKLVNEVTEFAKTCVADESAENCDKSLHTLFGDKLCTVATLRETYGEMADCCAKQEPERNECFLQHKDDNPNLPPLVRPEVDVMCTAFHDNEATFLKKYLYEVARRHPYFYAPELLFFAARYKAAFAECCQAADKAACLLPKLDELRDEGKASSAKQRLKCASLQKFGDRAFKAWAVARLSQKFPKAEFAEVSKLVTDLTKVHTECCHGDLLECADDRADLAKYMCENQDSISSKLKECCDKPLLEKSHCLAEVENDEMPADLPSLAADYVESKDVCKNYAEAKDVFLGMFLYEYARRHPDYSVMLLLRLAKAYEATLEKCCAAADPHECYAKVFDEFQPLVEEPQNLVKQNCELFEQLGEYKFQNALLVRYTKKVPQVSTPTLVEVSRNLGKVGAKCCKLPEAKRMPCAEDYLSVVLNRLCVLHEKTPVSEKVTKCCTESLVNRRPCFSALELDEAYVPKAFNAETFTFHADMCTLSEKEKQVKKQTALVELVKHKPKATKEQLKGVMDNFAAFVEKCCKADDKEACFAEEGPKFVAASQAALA

GLP-1 (7–36) peptide showed a cAMP-driven luciferase reporter gene expression in CHO cells stably transfected with human GLP-1 receptor (EC50) [1] of 0.1 nM.

“GAlbudAb, DPP-IV resistant GLP-1 (7–36, A8G) fused to the DOM7h-14 AlbudAb” showed a Kd [2] of 395 nM, a Kd [3] of 143 nM and a Kd (rat serum albumin (rat)) of 275 nM. It also gave a cAMP-driven luciferase reporter gene expression in CHO cells stably transfected with human GLP-1 receptor (EC50) [1] of 0.1 nM.
